Blank lines part the entries; values can stand above or below the binder they belong to.
Target: T1, TGF-β2
T1 sequence (P61812 303-414, species assumed, looked up): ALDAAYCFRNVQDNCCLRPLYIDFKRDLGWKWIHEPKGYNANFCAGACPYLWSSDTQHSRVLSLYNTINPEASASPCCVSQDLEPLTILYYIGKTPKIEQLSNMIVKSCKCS
Test: cell-based or functional assay

IC50 of inhibition of PAI-1 luciferase reporter activity in Mv1Lu mink lung epithelial cells induced with 20 pM TGF-β2: 1200 pM
B1: bivalent TGF-β receptor trap ER (BGE-RII) (other)
chain: GPEPSTRCELSPINASHPVQALMESFTVLSGCASRGTTGLPREVHVLNLRSTDQGPGQRQREVTLHLNPIASVHTHHKPIVFLLNSPQPLVWHLKTERLAAGVPRLFLVSEGSVVQFPSGNFSLTAETEERNFPQENEHLLRWAQKEYGAVTSFTELKIARNIYIKVGEDQVFPPTCNIGKNFLSLNYLAEYLQPKAAEGCVLPSQPHEKEVHIIELITPSSNPYSAFQVDIIVDIRPAQEDPEVVKNLVLILKCKKSVNWVIKSFDVKGNLKVIAPNSIGFGKESERSMTMTKLVRDDIPSTQENLMKWALDNGYRPVTSYTMAPVANRFHLRLENNEEMRDEEVHTIPPELRILLDPDNGAVKFPQLCKFCDVRFSTCDNQKSCMSNCSITSICEKPQEVCVAVWRKNDENITLETVCHDPKLPYHDFILEDAASPKCIMKEKKKPGETFFMCSCSSDECNDNIIFSEEYNTSNPD
modifications: N-linked glycans (as isolated, glycosylated)

IC50 of inhibition of PAI-1 luciferase reporter activity in Mv1Lu mink lung epithelial cells induced with 20 pM TGF-β2: 70 pM
B2: trivalent TGF-β receptor trap RER (RII-BGE-RII) (other)
chain: NGAVKFPQLCKFCDVRFSTCDNQKSCMSNCSITSICEKPQEVCVAVWRKNDENITLETVCHDPKLPYHDFILEDAASPKCIMKEKKKPGETFFMCSCSSDECNDNIIFSEEYNTSNPDGPEPSTRCELSPINASHPVQALMESFTVLSGCASRGTTGLPREVHVLNLRSTDQGPGQRQREVTLHLNPIASVHTHHKPIVFLLNSPQPLVWHLKTERLAAGVPRLFLVSEGSVVQFPSGNFSLTAETEERNFPQENEHLLRWAQKEYGAVTSFTELKIARNIYIKVGEDQVFPPTCNIGKNFLSLNYLAEYLQPKAAEGCVLPSQPHEKEVHIIELITPSSNPYSAFQVDIIVDIRPAQEDPEVVKNLVLILKCKKSVNWVIKSFDVKGNLKVIAPNSIGFGKESERSMTMTKLVRDDIPSTQENLMKWALDNGYRPVTSYTMAPVANRFHLRLENNEEMRDEEVHTIPPELRILLDPDNGAVKFPQLCKFCDVRFSTCDNQKSCMSNCSITSICEKPQEVCVAVWRKNDENITLETVCHDPKLPYHDFILEDAASPKCIMKEKKKPGETFFMCSCSSDECNDNIIFSEEYNTSNPD
modifications: N-linked glycans (as isolated, glycosylated)

Reference: article PMC5349899 (Oncotarget, 2016)
